Experimental data reported in publication PMC11828469 (2025).

B1: GST–Rabin8-WT [human] / 6His–Rab8a [not stated] (parent complex)
chain 1: MANDPLEGFHEVNLASPTSPDLLGVYESGTQEQTTSPSVIYRPHPSALSSVPIQANALDVSELPTQPVYSSPRRLNCAEISSISFHVTDPAPCSTSGVTAGLTKLTTRKDNYNAEREFLQGATITEACDGSDDIFGLSTDSLSRLRSPSVLEVREKGYERLKEELAKAQRELKLKDEECERLSKVRDQLGQELEELTASLFEEAHKMVREANIKQATAEKQLKEAQGKIDVLQAEVAALKTLVLSSSPTSPTQEPLPGGKTPFKKGHTRNKSTSSAMSGSHQDLSVIQPIVKDCKEADLSLYNEFRLWKDEPTMDRTCPFLDKIYQEDIFPCLTFSKSELASAVLEAVENNTLSIEPVGLQPIRFVKASAVECGGPKKCALTGQSKSCKHRIKLGDSSNYYYISPFCRYRITSVCNFFTYIRYIQQGLVKQQDVDQMFWEVMQLRKEMSLAKLGYFKEEL
chain 2: MAKTYDYLFKLLLIGDSGVGKTCVLFRFSEDAFNSTFISTIGIDFKIRTIELDGKRIKLQIWDTAGQERFRTITTAYYRGAMGIMLVYDITNEKSFDNIRNWIRNIEEHASADVEKMILGNKCDVNDKRQVSKERGEKLALDYGIKFMETSAKANINVENAFFTLARDIKAKMDKKLEGNSPQGSNQGVKITPDQQKRSSFFRCVLL
B2: GST–Rabin8-WT [human] / 6His–Rab11a [not stated] (parent complex)
chain 1: B1 chain 1
chain 2: MGTRDDEYDYLFKVVLIGDSGVGKSNLLSRFTRNEFNLESKSTIGVEFATRSIQVDGKTIKAQIWDTAGQERYRAITSAYYRGAVGALLVYDIAKHLTYENVERWLKELRDHADSNIVIMLVGNKSDLRHLRAVPTDEARAFAEKNGLSFIETSALDSTNVEAAFQTILTEIYRIVSQKQMSDRRENDMSPSNNVVPIHVPPTTENKPKVQCCQNI

Variants of: B1
Test: GST pull-down, immunoblot quantified with Image Lab 6.1; purified Rab8 in the presence of GDPβS; n=3; parent: 4.5; read off a plot

| response | Variant |
| --- | --- |
| ~4.5 | chain 1 MANDPLEGFHEVNLASPTSPDLLGVYESGTQEQTTSPSVIYRPHPSALSSVPIQANALDVSELPTQPVYSSPRRLNCAEISSISFHVTDPAPCSTSGVTAGLTKLTTRKDNYNAEREFLQGATITEACDGSDDIFGLSTDSLSRLRSPSVLEVREKGYERLKEELAKAQRELKLKDEECERLSKVRDQLGQELEELTASLAEEAHKMVREANIKQATAEKQLKEAQGKIDVLQAEVAALKTLVLSSSPTSPTQEPLPGGKTPFKKGHTRNKSTSSAMSGSHQDLSVIQPIVKDCKEADLSLYNEFRLWKDEPTMDRTCPFLDKIYQEDIFPCLTFSKSELASAVLEAVENNTLSIEPVGLQPIRFVKASAVECGGPKKCALTGQSKSCKHRIKLGDSSNYYYISPFCRYRITSVCNFFTYIRYIQQGLVKQQDVDQMFWEVMQLRKEMSLAKLGYFKEEL [chain 1 F201A] |
| ~4.5 | chain 1 MANDPLEGFHEVNLASPTSPDLLGVYESGTQEQTTSPSVIYRPHPSALSSVPIQANALDVSELPTQPVYSSPRRLNCAEISSISFHVTDPAPCSTSGVTAGLTKLTTRKDNYNAEREFLQGATITEACDGSDDIFGLSTDSLSRLRSPSVLEVREKGYERLKEELAKAQRELKLKDEECERLSKVRDQLGQALEELTASLFEEAHKMVREANIKQATAEKQLKEAQGKIDVLQAEVAALKTLVLSSSPTSPTQEPLPGGKTPFKKGHTRNKSTSSAMSGSHQDLSVIQPIVKDCKEADLSLYNEFRLWKDEPTMDRTCPFLDKIYQEDIFPCLTFSKSELASAVLEAVENNTLSIEPVGLQPIRFVKASAVECGGPKKCALTGQSKSCKHRIKLGDSSNYYYISPFCRYRITSVCNFFTYIRYIQQGLVKQQDVDQMFWEVMQLRKEMSLAKLGYFKEEL [chain 1 E192A] |
| ~4.5 | chain 1 MANDPLEGFHEVNLASPTSPDLLGVYESGTQEQTTSPSVIYRPHPSALSSVPIQANALDVSELPTQPVYSSPRRLNCAEISSISFHVTDPAPCSTSGVTAGLTKLTTRKDNYNAEREFLQGATITEACDGSDDIFGLSTDSLSRLRSPSVLEVREKGYERLKEELAKAQRELKLKDEECERLSKVRDQLGQELEELTASLFEEAHKMVREANIKQATAEKQLKEAQGKIDVLQAEVAALKTLVLSSSPTSPTQEPLPGGKTPFKKGHTRNKSTSSAMSGSHQDLSVIQPIVKDCKEADLSLYNEFRLWKDEPTMDRTCPFLDKIYQEDIFPCLTFSKSELASAVLEAVENNTLSIEPVGLQPIRFVKASAVECGGPKKCALTGQSKSCKHRIKLGDSSNYYYISPFCRYRITSVCNFFAYIRAIQQGAVKQQDVDQMFWEVMQLRKEMSLAKLGYFKEEL [chain 1 T419A, chain 1 Y423A, chain 1 L428A] |

Variants of: B2
Test: GST pull-down, immunoblot quantified with Image Lab 6.1; purified Rab11 in the presence of GTPγS; n=3; parent: 8.5; read off a plot

| response | Variant |
| --- | --- |
| ~9.5 | chain 1 MANDPLEGFHEVNLASPTSPDLLGVYESGTQEQTTSPSVIYRPHPSALSSVPIQANALDVSELPTQPVYSSPRRLNCAEISSISFHVTDPAPCSTSGVTAGLTKLTTRKDNYNAEREFLQGATITEACDGSDDIFGLSTDSLSRLRSPSVLEVREKGYERLKEELAKAQRELKLKDEECERLSKVRDQLGQALEELTASLFEEAHKMVREANIKQATAEKQLKEAQGKIDVLQAEVAALKTLVLSSSPTSPTQEPLPGGKTPFKKGHTRNKSTSSAMSGSHQDLSVIQPIVKDCKEADLSLYNEFRLWKDEPTMDRTCPFLDKIYQEDIFPCLTFSKSELASAVLEAVENNTLSIEPVGLQPIRFVKASAVECGGPKKCALTGQSKSCKHRIKLGDSSNYYYISPFCRYRITSVCNFFTYIRYIQQGLVKQQDVDQMFWEVMQLRKEMSLAKLGYFKEEL [chain 1 E192A] |
| ~9 | chain 1 MANDPLEGFHEVNLASPTSPDLLGVYESGTQEQTTSPSVIYRPHPSALSSVPIQANALDVSELPTQPVYSSPRRLNCAEISSISFHVTDPAPCSTSGVTAGLTKLTTRKDNYNAEREFLQGATITEACDGSDDIFGLSTDSLSRLRSPSVLEVREKGYERLKEELAKAQRELKLKDEECERLSKVRDQLGQELEELTASLAEEAHKMVREANIKQATAEKQLKEAQGKIDVLQAEVAALKTLVLSSSPTSPTQEPLPGGKTPFKKGHTRNKSTSSAMSGSHQDLSVIQPIVKDCKEADLSLYNEFRLWKDEPTMDRTCPFLDKIYQEDIFPCLTFSKSELASAVLEAVENNTLSIEPVGLQPIRFVKASAVECGGPKKCALTGQSKSCKHRIKLGDSSNYYYISPFCRYRITSVCNFFTYIRYIQQGLVKQQDVDQMFWEVMQLRKEMSLAKLGYFKEEL [chain 1 F201A] |

Variants of: B2
Test: GST pull-down, immunoblot quantified with Image Lab 6.1; purified Rab11 in the presence of GTPγS; n=3; P=0.0012 vs WT; parent: 8.5; read off a plot

| response | Variant |
| --- | --- |
| ~2.5 | chain 1 MANDPLEGFHEVNLASPTSPDLLGVYESGTQEQTTSPSVIYRPHPSALSSVPIQANALDVSELPTQPVYSSPRRLNCAEISSISFHVTDPAPCSTSGVTAGLTKLTTRKDNYNAEREFLQGATITEACDGSDDIFGLSTDSLSRLRSPSVLEVREKGYERLKEELAKAQRELKLKDEECERLSKVRDQLGQELEELTASLFEEAHKMVREANIKQATAEKQLKEAQGKIDVLQAEVAALKTLVLSSSPTSPTQEPLPGGKTPFKKGHTRNKSTSSAMSGSHQDLSVIQPIVKDCKEADLSLYNEFRLWKDEPTMDRTCPFLDKIYQEDIFPCLTFSKSELASAVLEAVENNTLSIEPVGLQPIRFVKASAVECGGPKKCALTGQSKSCKHRIKLGDSSNYYYISPFCRYRITSVCNFFAYIRAIQQGAVKQQDVDQMFWEVMQLRKEMSLAKLGYFKEEL [chain 1 T419A, chain 1 Y423A, chain 1 L428A] |
